Data on 1 molecule can be found in US20220089752A1 (University of California, published 2022).

In assay [1] the target is T1, ephrin type-A receptor 2 (EphA2) on cells (human, UniProt P29317 24-976).
T1 construct: whole, on cells
Kind of assay: flow cytometry on DU145 cells (apparent KD). As for the experimental part: (§1) In these experiments, apparent binding affinity of RYR IgG1 versus RYRgerm_102919_15 IgG1 on DU145 cells was evaluated. In these experiments, DU145 cells were incubated for 1 h at 25° C. with RYR or RYRgerm_102919_15 at a range of concentrations between 40 pM to 125 nM, washed, and binding detected with anti-human Alexa Fluor 647. MFI values were curve-fit to generate the apparent KD values.
On the technique in general: A flow cytometer gives signals particle by particle.

Assay [2] addresses T1, ephrin type-A receptor 2 (EphA2) on …. The assay is described as follows: flow cytometry on DU145 cells, 1 h at 25 C, 40 pM to 125 nM, MFI curve fit (apparent KD). On the procedure: as §1
Another assay deals with T2, recombinant human EphA2 (human, UniProt P29317 25-534).
T2 construct: also called human recombinant EphA2 protein
T2 sequence (P29317 25-534 limits assumed): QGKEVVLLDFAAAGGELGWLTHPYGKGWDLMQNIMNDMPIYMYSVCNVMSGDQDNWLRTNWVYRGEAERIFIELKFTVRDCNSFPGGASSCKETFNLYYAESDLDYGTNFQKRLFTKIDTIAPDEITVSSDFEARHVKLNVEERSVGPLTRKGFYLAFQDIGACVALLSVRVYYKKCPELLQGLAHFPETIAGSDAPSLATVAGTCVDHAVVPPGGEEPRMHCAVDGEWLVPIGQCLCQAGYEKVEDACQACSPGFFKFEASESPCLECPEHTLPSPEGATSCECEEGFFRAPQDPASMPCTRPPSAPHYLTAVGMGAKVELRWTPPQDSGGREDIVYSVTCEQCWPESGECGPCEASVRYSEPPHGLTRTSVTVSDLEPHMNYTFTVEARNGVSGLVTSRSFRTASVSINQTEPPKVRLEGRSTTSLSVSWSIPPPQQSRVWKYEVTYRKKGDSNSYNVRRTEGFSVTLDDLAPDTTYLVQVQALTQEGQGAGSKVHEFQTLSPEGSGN
The assay is described as follows: BLI (Probe Life Gator), IgG1 on anti-human Fc probes, 100 nM recombinant human EphA2, 25 C.

T1 sequence (P29317 24-976): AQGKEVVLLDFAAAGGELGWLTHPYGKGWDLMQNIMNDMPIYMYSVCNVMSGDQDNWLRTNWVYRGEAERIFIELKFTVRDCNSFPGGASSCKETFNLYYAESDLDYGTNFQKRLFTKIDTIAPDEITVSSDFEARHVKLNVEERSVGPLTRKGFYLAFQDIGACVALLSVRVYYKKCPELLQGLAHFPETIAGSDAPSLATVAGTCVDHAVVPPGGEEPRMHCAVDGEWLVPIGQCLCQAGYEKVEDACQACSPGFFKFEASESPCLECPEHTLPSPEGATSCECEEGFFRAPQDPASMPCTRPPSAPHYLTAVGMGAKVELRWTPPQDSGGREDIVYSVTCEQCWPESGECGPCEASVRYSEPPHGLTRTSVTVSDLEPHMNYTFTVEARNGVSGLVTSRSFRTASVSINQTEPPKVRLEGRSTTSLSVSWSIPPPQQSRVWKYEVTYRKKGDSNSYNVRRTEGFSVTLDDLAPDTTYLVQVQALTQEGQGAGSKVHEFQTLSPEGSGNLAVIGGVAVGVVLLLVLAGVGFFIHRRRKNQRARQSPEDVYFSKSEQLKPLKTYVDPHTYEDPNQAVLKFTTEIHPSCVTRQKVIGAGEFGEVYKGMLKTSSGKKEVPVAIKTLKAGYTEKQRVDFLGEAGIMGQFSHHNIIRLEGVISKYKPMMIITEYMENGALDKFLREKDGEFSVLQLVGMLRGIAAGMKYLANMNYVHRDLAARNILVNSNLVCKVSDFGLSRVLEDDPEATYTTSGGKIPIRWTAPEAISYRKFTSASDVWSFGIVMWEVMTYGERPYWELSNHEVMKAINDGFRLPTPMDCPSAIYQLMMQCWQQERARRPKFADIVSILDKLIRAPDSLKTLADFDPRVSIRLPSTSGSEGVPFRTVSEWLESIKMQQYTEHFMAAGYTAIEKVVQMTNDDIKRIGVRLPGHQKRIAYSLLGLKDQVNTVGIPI

B1: RYRgerm_102919_15 IgG1 (antibody, V domains shown)
VH: EVQLVESGGGLVQPGGSLRLSCAASGFTFSSYSMNWVRQAPGKGLEWVSYISSSSSTIYYADSVKGRFTISRDNAKNSLYLQMNSLRAEDTAVYYCARYRLPNFWSGYPNYGTDVWGQGTTVTVSS
VL: QSVLTQPPSVSGAPGQRVTISCTGSSSNIGAGYDVHWYQQLPGTAPKLLIYGNSNRPSGVPDRFSGSKSGTSASLAITGLQAEDEADYYCQSYDSSLSGHVVFGGGTKLTVL
notes: Recombinant human IgG1 built from the scFv RYRgerm_102919_15
Take B1: the “fold increase in binding affinity against RYR IgG1” value in assay [1] is roughly 100 fold. The Kd in assay [2] came out at 0.23 nM. Besides, in the assay with recombinant human EphA2, the Kd is roughly 5 nM, the “fold increase in binding affinity against RYR IgG1” value was roughly 5 fold, the off-rate constant (koff) was 0.00132 s⁻¹ and the kon turned out to be 262000 M⁻¹ s⁻¹.

The koff is a measure of how fast the partners let go of each other. One may read the kon as the rate constant with which the complex forms.
